# Reference: patent publication US20220380473A1, “ANTI-GAL3 ANTIBODIES AND USES THEREOF” (TrueBinding, Inc., priority 2019, published 2022)
# B1: IMT001: anti-Gal3 monoclonal antibody (Immutics); printed as mIMT001 (IMT001), murine (antibody, V domains shown)
# VH: QIQLVQSGPELKKPGETVKISCKASGYTFTNYGMNWVKQAPGKGLKWMGWINTNTGEPTYVEEFKGRFAFSLETSASTAYLQINNLKNEDTATYFCAPYDNFFAYWGQGTLVTVSA
# VL: DIVITQDELSNPVTSGESVSISCRSSKSLLYKDGKTYLNWFLQRPGQSPQLLIYLMSTHASGVSDRFSGSGSGTDFTLEISRVKAEDVGVYYCQQLVDYPLTFGAGTKLELK
# Legend:
# Galectin-3 = Galectin-3 (Homo sapiens, UniProt P17931); assay: SPR (BiacoreT200) binding affinity; conditions: 25° C., read-out: hGal-3 KD
# Method: GAL3-binding antibodies were evaluated for their binding affinity by SPR. Kinetics experiments were performed on BiacoreT200 at 25° C. in high performance mode. Ligand proteins, purified antibodies were captured onto a CM5 chip coupled with anti-human Fc or anti-mouse Fc antibody, three antibodies at a time onto flow cell #2, 3, and 4, respectively, while flow cell #1 was used as reference. The analyte Galectin-3 in HBS-EP buffer was injected over all four flow cells at concentrations of 100, 50, 25, 12.5, 6.25, 3.125 and 0 nM at a flow rate of 30 μL/min. The complex was allowed to associate and dissociate for 240 and 300 seconds, respectively. The surfaces were regenerated with a 30 second injection of 10 mM Glycine pH 1.7 (flow rate 30 μL/min). The data were fit to a simple 1:1 interaction model using the global data analysis option available within BiacoreT200 Evaluation software V2.0. The affinity of Gal3 monoclonal antibodies was confirmed to be […] 30 nM for all antibodies studied (Table 24.1). Antibodies with affinity less than 2E-7 were selected for further characterization.
# Renca cells = assay: Primary mouse Renca renal tumor model; type: in vivo; conditions: vs isotype control
# Method: On the day of tumor implantation, mice were anesthetized by inhalation anesthetic (3 to 5% Isoflurane in medical grade air), Renca cells were washed and resuspended in PBS before subcutaneously injecting 2×10^5 cells in 0.1 mL, PBS using a syringe with a 25-ga needle. […] The animals were humanely sacrificed when tumor volume in the control group reached between 2000-2500 mm^3. Results were expressed as mean±SEM. The statistical analysis was performed in comparison with IgG2b control group using unpaired t test.
# a-SMA and fibronectin = assay: N-IF mouse liver fibrosis, western blot of fibrosis markers; type: in vivo; conditions: 10 mg/kg every fourth day for 40 days, vs mIgG2b
# Method: N-IF mice were generated by crossing 24αβNOD mice and NOD.Rag2−/− mouse strains. The N-IF mice were backcrossed with the B6.Rag2−/− mouse strains for 10 generations. Mice (male and female) were separated into two groups: IMT001 antibody treatment group and mIgG2b antibody control group. Antibodies were administered to the animals every fourth day for 40 days, at 10 mg/kg body weight and the animals were subsequently sacrificed. All efforts were made to minimize suffering. Liver and Kidney tissues were collected and snap frozen in liquid nitrogen for western blot analysis. Tissue processing and western blot analysis were performed as in Example 19. GAPDH was used a loading control reference.
# [1] = biological target: T1, association of GAL3 and TIM3 (Homo sapiens, UniProt P17931); assay: GAL3-TIM3 blocking ELISA (Examples 24, 27); type: binding; conditions: 3 ug/mL antibody
# T1 construct: full-length human Galectin-3 protein (Acro Biosystems, GA3-H5129); linker-spaced 6-histidine tag; purchased Acro Biosystems GA3-H5129 (Gal3); TM3-H5229 (TIM-3)
# Method: Positively scoring wells were evaluated for the ability to block association of GAL3 and TIM3. To identify GAL3-targeted antibodies with the ability to block the interaction of GAL3 and TIM3, purified GAL3 and TIM3 proteins were incubated in the presence of GAL3-immunization hybridoma supernatants described above, or without antibody, and protein interaction was evaluated by ELISA. Human Galectin-3 protein (Acro Biosystems, GA3-H5129) was diluted in PBS (Corning, 21-030-CM) to a concentration of 3 μg/ml and added to the wells of a 96-well ELISA plate (Thermo Fisher, 44-2404-21). After incubating the plate at 4° C. overnight, the plate was washed three times with PBST (PBS with 0.05% Tween 20 [VWR, 0777]). The plate was then blocked for an hour with 2% BSA (EMD Millipore, 126609) in PBST at room temperature with gentle rocking. Thereafter, the 2% BSA in PBST was discarded and antibody or inhibitor (3-fold dilutions beginning at 20 μg/ml, 60 μg/ml, or 180 μM) in 2% BSA in PBST was added to the wells. Afterwards, 2 μg/ml of human TIM3 (Aero Biosystems, TM3-H5229) in 2% BSA in PBST was added to the antibody or inhibitor in the wells in a 1:1 ratio. The plate was incubated for an hour at room temperature with gentle rocking. Thereafter, the plate was washed three times with PBST, and 0.3 μg/ml of human TIM3 Biotinylated Antibody (R&D Systems, BAF2365) in 2% BSA in PBST was added to the wells. The plate was incubated for an hour with gentle rocking and then washed three times with PBST. Avidin-HRP (1:2000) was then added to the wells. The plate was incubated at room temperature for an hour with gentle rocking and then washed three times with PBST. TMB substrate (Thermo Scientific, 34029) was then added to each well. The reaction was stopped with 1M HCl (JT Baker, 5620-02) and read using a plate reader (Molecular Devices) at absorbance of 450 nm.
# T1 sequence (P17931 2-250 limits assumed): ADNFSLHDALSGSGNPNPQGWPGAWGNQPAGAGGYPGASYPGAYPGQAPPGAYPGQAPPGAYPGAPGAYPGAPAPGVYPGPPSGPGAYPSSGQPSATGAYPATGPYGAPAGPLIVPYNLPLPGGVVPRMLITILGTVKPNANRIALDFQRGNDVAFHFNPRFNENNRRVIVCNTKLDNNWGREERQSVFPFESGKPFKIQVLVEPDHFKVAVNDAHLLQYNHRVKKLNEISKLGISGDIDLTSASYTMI
# Chain of Galectin-3 (P17931 whole entry): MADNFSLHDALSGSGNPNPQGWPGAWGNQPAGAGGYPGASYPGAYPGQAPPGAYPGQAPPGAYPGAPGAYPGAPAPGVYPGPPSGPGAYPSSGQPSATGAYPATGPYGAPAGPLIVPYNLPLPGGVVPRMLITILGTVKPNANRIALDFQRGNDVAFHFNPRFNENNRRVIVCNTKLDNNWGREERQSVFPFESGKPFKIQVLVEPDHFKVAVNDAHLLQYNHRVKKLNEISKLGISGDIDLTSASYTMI
molecule,measurement,setting,value
B1,Kd,Galectin-3,1.67 nM
same,reduction of tumor growth,Renca cells; 10 mg/Kg i.p.,about 35%
same,effect on tumor size,Renca cells,much reduced tumor size
same,expression of fibrotic markers a-SMA and fibronectin in liver,a-SMA and fibronectin,significant reductions
same,GAL3-TIM3 Blocking @ 3 ug/mL,[1],80%
